Consider three compounds from patent US8703907B2, “Controlled drug release from dendrimers” (Prolynx LLC, priority 2010, dated 2014).

Series [1] concerns the target T1, GLP1 receptor (Rattus norvegicus, UniProt P32301).
T1 construct: in membrane or cell-based assays (e.g., RIN-m5f cells, ATCC); host or cells: RIN-m5f cells
T1 sequence (P32301 22-463): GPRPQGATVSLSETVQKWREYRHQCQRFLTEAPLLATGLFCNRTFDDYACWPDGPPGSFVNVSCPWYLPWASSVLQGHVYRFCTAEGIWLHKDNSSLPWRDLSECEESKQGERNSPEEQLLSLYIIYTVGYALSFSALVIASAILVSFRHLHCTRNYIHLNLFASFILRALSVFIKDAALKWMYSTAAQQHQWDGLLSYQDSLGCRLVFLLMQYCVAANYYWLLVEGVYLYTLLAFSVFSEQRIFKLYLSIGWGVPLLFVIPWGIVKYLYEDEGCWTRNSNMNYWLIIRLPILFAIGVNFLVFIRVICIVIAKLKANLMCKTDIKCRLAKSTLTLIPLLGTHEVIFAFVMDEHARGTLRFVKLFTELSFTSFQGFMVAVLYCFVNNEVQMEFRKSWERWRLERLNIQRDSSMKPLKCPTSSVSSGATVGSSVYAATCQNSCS
Put plainly: GLP1 receptor agonism in membrane or cell-based assays after β-eliminative release. Particulars: native exendin released by mild base. As to the method:
The PEG and PEG-dendrimer conjugates are tested as agonists of the GLP1 receptor in membrane or cell-based assays (e.g., RIN-m5f cells, ATCC as described (Young, A., et al., (2000) WO00/66629) pages 74-75) before and after β-eliminative release of native exendin.

For series [2] the following is noted: in vivo; cited from earlier work.
Series [3] relates to plasma proteases. Particulars: cited from earlier work.
Series [4] can be described thus: β-eliminative cleavage of DNP-Lys carbamates (HPLC). In kind it is physicochemical. The settings on record: after 5 days at 37° C. and pH 7.4. As to the method: A series of model linker scaffolds having a range of functional groups as potential pKa modulators (substituted aromatics, ketones, nitriles, sulfones) were designed, prepared and linked via carbamate bonds to Ne-2,4-dinitrophenyl-L-lysine (Ne-DNP-Lys) for evaluation of release rates; DNP-Lys is water soluble and is a strong chromophore to permit HPLC-UV analysis. Rates of release at pH 7.4 and/or 8.3 were determined.
The DNP carbamates were prepared as follows. A suspension of N-DNP-L-Lys HCl (35 mg, 0.1 mmol) in 600 μL of water was treated successively with 1.0 N NaOH (200 μL) and 1.0 M NaHCO3. A 0.1 M solution of the N—HS carbonate in acetonitrile (1.0 mL) was added to the stirred mixture to give a clear yellow solution. After 1 hr, the mixture was diluted with 10 mL water and loaded onto a Bond-Elut™ C18 extraction column (1 gm). The column was washed successively with water, 1% CF3CO2H/water, water, and 50% MeOH/water. The product was eluted with MeOH, then evaporated to give the product as a yellow glass. Kinetic analyses were performed by HPLC (C18; linear MeOH/water+0.5% HOAc gradient) using a UV/vis monitor. The areas under the DNP and starting material peaks were integrated to determine extent of reaction.
The half-lives for cleavage span 2 hr to >10 days. […]

A short description of series [5]: hydrolysis of carbamate in 50% human serum. The series is classed as in vitro ADME. The settings on record: 1 week at 37° C. The text has this:
The half-lives for cleavage span 2 hr to >10 days. […] In general, compared to C—H, a) electron withdrawing groups at R^1 increase the rate; b) alkyl groups at R^3 increase the rate; and c) aryl moieties at R^3 decrease the rate.

Take “Exendin-4: 39-amino acid peptide from the Gila monster, agonist of the GLP-1 receptor”: in series [1], the “activity as GLP1 agonists” value was “full activity”. Moreover, the half-life in series [2] was 2.5 h. Moreover, the “t1/2 against plasma proteases in vitro” value in series [3] was roughly 10 h.
With GLP-1: glucagon-like peptide 1, the plasma lifetime in series [2] is reported as roughly 5 min.
For the compound `O=C(N[C@@H](CCCCNc1ccc([N+](=O)[O-])cc1[N+](=O)[O-])C(=O)O)OCc1ccccc1` [O-benzyl-N—(Ne-2,4-DNP-Lys) carbamate], in series [4], the cleavage result is on record as “less than 0.25%”. Besides, the “hydrolysis in 50% human serum” value in series [5] is recorded as “no detectable hydrolysis”.
